Drawing on PMC5673894, this text covers percent of parent for four molecules.

The test addresses recombinant histone H3K4me3, P68431. Briefly: co-immunoprecipitation with anti-H3K4me3 antibodies, quantified anti-GFP immunoblot. The settings on record: chain shown with the change, 0.3-M NaCl extracts of XP-C fibroblasts, recombinant H3K4me3 2 µg, n = 3, read off a plot. In general terms: A western blot detects proteins with antibodies after separation by electrophoresis.

B1: wild-type XPC-GFP fusion, Q01831 W690S (protein)
chain: MARKRAAGGEPRGRELRSQKSKAKSKARREEEEEDAFEDEKPPKKSLLSKVSQGKRKRGCSHPGGSADGPAKKKVAKVTVKSENLKVIKDEALSDGDDLRDFPSDLKKAHHLKRGATMNEDSNEEEEESENDWEEVEELSEPVLGDVRESTAFSRSLLPVKPVEIEIETPEQAKTRERSEKIKLEFETYLRRAMKRFNKGVHEDTHKVHLLCLLANGFYRNNICSQPDLHAIGLSIIPARFTRVLPRDVDTYYLSNLVKWFIGTFTVNAELSASEQDNLQTTLERRFAIYSARDDEELVHIFLLILRALQLLTRLVLSLQPIPLKSATAKGKKPSKERLTADPGGSSETSSQVLENHTKPKTSKGTKQEETFAKGTCRPSAKGKRNKGGRKKRSKPSSSEEDEGPGDKQEKATQRRPHGRERRVASRVSYKEESGSDEAGSGSDFELSSGEASDPSDEDSEPGPPKQRKAPAPQRTKAGSKSASRTHRGSHRKDPSLPAASSSSSSSKRGKKMCSDGEKAEKRSIAGIDQWLEVFCEQEEKWVCVDCVHGVVGQPLTCYKYATKPMTYVVGIDSDGWVRDVTQRYDPVWMTVTRKCRVDAEWWAETLRPYQSPFMDREKKEDLEFQAKHMDQPLPTAIGLYKNHPLYALKRHLLKYEAIYPETAAILGYCRGEAVYSRDCVHTLHSRDTSLKKARVVRLGEVPYKMVKGFSNRARKARLAEPQLREENDLGLFGYWQTEEYQPPVAVDGKVPRNEFGNVYLFLPSMMPIGCVQLNLPNLHRVARKLDIDCVQAITGFDFHGGYSHPVTDGYIVCEEFKDVLLTAWENEQAVIERKEKEKKEKRALGNWKLLAKGLLIRERLKRRYGPKSEAAAPHTDAGGGLSSDEEEGTSSQAEAARILAASWPQNREDEEKQKLKGGPKKTKREKKAAASHLFPFEQL
For B1, the percent of parent is 72 % WT.

B2: wild-type XPC-GFP fusion, Q01831 E755K (protein)
chain: MARKRAAGGEPRGRELRSQKSKAKSKARREEEEEDAFEDEKPPKKSLLSKVSQGKRKRGCSHPGGSADGPAKKKVAKVTVKSENLKVIKDEALSDGDDLRDFPSDLKKAHHLKRGATMNEDSNEEEEESENDWEEVEELSEPVLGDVRESTAFSRSLLPVKPVEIEIETPEQAKTRERSEKIKLEFETYLRRAMKRFNKGVHEDTHKVHLLCLLANGFYRNNICSQPDLHAIGLSIIPARFTRVLPRDVDTYYLSNLVKWFIGTFTVNAELSASEQDNLQTTLERRFAIYSARDDEELVHIFLLILRALQLLTRLVLSLQPIPLKSATAKGKKPSKERLTADPGGSSETSSQVLENHTKPKTSKGTKQEETFAKGTCRPSAKGKRNKGGRKKRSKPSSSEEDEGPGDKQEKATQRRPHGRERRVASRVSYKEESGSDEAGSGSDFELSSGEASDPSDEDSEPGPPKQRKAPAPQRTKAGSKSASRTHRGSHRKDPSLPAASSSSSSSKRGKKMCSDGEKAEKRSIAGIDQWLEVFCEQEEKWVCVDCVHGVVGQPLTCYKYATKPMTYVVGIDSDGWVRDVTQRYDPVWMTVTRKCRVDAEWWAETLRPYQSPFMDREKKEDLEFQAKHMDQPLPTAIGLYKNHPLYALKRHLLKYEAIYPETAAILGYCRGEAVYSRDCVHTLHSRDTWLKKARVVRLGEVPYKMVKGFSNRARKARLAEPQLREENDLGLFGYWQTEEYQPPVAVDGKVPRNKFGNVYLFLPSMMPIGCVQLNLPNLHRVARKLDIDCVQAITGFDFHGGYSHPVTDGYIVCEEFKDVLLTAWENEQAVIERKEKEKKEKRALGNWKLLAKGLLIRERLKRRYGPKSEAAAPHTDAGGGLSSDEEEGTSSQAEAARILAASWPQNREDEEKQKLKGGPKKTKREKKAAASHLFPFEQL
For B2, the percent of parent was found to be 85 % WT.

B3: wild-type XPC-GFP fusion, Q01831 D748K (protein)
chain: MARKRAAGGEPRGRELRSQKSKAKSKARREEEEEDAFEDEKPPKKSLLSKVSQGKRKRGCSHPGGSADGPAKKKVAKVTVKSENLKVIKDEALSDGDDLRDFPSDLKKAHHLKRGATMNEDSNEEEEESENDWEEVEELSEPVLGDVRESTAFSRSLLPVKPVEIEIETPEQAKTRERSEKIKLEFETYLRRAMKRFNKGVHEDTHKVHLLCLLANGFYRNNICSQPDLHAIGLSIIPARFTRVLPRDVDTYYLSNLVKWFIGTFTVNAELSASEQDNLQTTLERRFAIYSARDDEELVHIFLLILRALQLLTRLVLSLQPIPLKSATAKGKKPSKERLTADPGGSSETSSQVLENHTKPKTSKGTKQEETFAKGTCRPSAKGKRNKGGRKKRSKPSSSEEDEGPGDKQEKATQRRPHGRERRVASRVSYKEESGSDEAGSGSDFELSSGEASDPSDEDSEPGPPKQRKAPAPQRTKAGSKSASRTHRGSHRKDPSLPAASSSSSSSKRGKKMCSDGEKAEKRSIAGIDQWLEVFCEQEEKWVCVDCVHGVVGQPLTCYKYATKPMTYVVGIDSDGWVRDVTQRYDPVWMTVTRKCRVDAEWWAETLRPYQSPFMDREKKEDLEFQAKHMDQPLPTAIGLYKNHPLYALKRHLLKYEAIYPETAAILGYCRGEAVYSRDCVHTLHSRDTWLKKARVVRLGEVPYKMVKGFSNRARKARLAEPQLREENDLGLFGYWQTEEYQPPVAVKGKVPRNEFGNVYLFLPSMMPIGCVQLNLPNLHRVARKLDIDCVQAITGFDFHGGYSHPVTDGYIVCEEFKDVLLTAWENEQAVIERKEKEKKEKRALGNWKLLAKGLLIRERLKRRYGPKSEAAAPHTDAGGGLSSDEEEGTSSQAEAARILAASWPQNREDEEKQKLKGGPKKTKREKKAAASHLFPFEQL
As for B3, the percent of parent (P = 0.0087 vs WT) was found to be 55 % WT.

B4: wild-type XPC-GFP fusion, Q01831 D748K; E755K (protein)
chain: MARKRAAGGEPRGRELRSQKSKAKSKARREEEEEDAFEDEKPPKKSLLSKVSQGKRKRGCSHPGGSADGPAKKKVAKVTVKSENLKVIKDEALSDGDDLRDFPSDLKKAHHLKRGATMNEDSNEEEEESENDWEEVEELSEPVLGDVRESTAFSRSLLPVKPVEIEIETPEQAKTRERSEKIKLEFETYLRRAMKRFNKGVHEDTHKVHLLCLLANGFYRNNICSQPDLHAIGLSIIPARFTRVLPRDVDTYYLSNLVKWFIGTFTVNAELSASEQDNLQTTLERRFAIYSARDDEELVHIFLLILRALQLLTRLVLSLQPIPLKSATAKGKKPSKERLTADPGGSSETSSQVLENHTKPKTSKGTKQEETFAKGTCRPSAKGKRNKGGRKKRSKPSSSEEDEGPGDKQEKATQRRPHGRERRVASRVSYKEESGSDEAGSGSDFELSSGEASDPSDEDSEPGPPKQRKAPAPQRTKAGSKSASRTHRGSHRKDPSLPAASSSSSSSKRGKKMCSDGEKAEKRSIAGIDQWLEVFCEQEEKWVCVDCVHGVVGQPLTCYKYATKPMTYVVGIDSDGWVRDVTQRYDPVWMTVTRKCRVDAEWWAETLRPYQSPFMDREKKEDLEFQAKHMDQPLPTAIGLYKNHPLYALKRHLLKYEAIYPETAAILGYCRGEAVYSRDCVHTLHSRDTWLKKARVVRLGEVPYKMVKGFSNRARKARLAEPQLREENDLGLFGYWQTEEYQPPVAVKGKVPRNKFGNVYLFLPSMMPIGCVQLNLPNLHRVARKLDIDCVQAITGFDFHGGYSHPVTDGYIVCEEFKDVLLTAWENEQAVIERKEKEKKEKRALGNWKLLAKGLLIRERLKRRYGPKSEAAAPHTDAGGGLSSDEEEGTSSQAEAARILAASWPQNREDEEKQKLKGGPKKTKREKKAAASHLFPFEQL
In the case of B4, the percent of parent (P = 0.0147 vs WT) stood at 46 % WT.
